Reference: patent publication US20220306713A1
Values belong to the molecule of their own block, whether it stands above or below them.

Experiments:
[1] = molecular target: mouse PD-L1 on the surface of mouse tumor cell lines A20 and CT26 (mouse) (UniProt Q9EP73); assay: flow cytometry, PE-labelled protein, 2.5 ug in 100 ul, A20 cells (high PD-L1), after Fc block; A20-Blank X-AMean 76.61
[2] = molecular target: mouse PD-L1 on the surface of mouse tumor cell lines A20 and CT26 (mouse) (UniProt Q9EP73); assay: flow cytometry, PE-labelled protein, 2.5 ug in 100 ul, CT26 cells (low PD-L1), after Fc block; CT26-Blank X-AMean printed 254.50
[3] = molecular target: mouse PD-L1 on the surface of mouse tumor cell lines A20 and CT26 (mouse) (UniProt Q9EP73); assay: flow cytometry, PE-labelled protein, 0.5 ug in 100 ul, A20 cells (high PD-L1), after Fc block; A20-Blank X-AMean 76.61
[4] = molecular target: recombinant human PD-1 antigen (human) (UniProt Q15116); assay: SPR (Biacore T200), antibody captured on anti-human IgG Fc CM5 chip, recombinant human PD-1 as analyte, 1:1 Langmuir fit
[5] = molecular target: recombinant human PD-L1 antigen (human) (UniProt Q9NZQ7); assay: SPR (Biacore T200), antibody captured on anti-human IgG Fc CM5 chip, recombinant human PD-L1 as analyte, 1:1 Langmuir fit
Sequence of UniProt Q9NZQ7 (Q9NZQ7 19-238 limits assumed): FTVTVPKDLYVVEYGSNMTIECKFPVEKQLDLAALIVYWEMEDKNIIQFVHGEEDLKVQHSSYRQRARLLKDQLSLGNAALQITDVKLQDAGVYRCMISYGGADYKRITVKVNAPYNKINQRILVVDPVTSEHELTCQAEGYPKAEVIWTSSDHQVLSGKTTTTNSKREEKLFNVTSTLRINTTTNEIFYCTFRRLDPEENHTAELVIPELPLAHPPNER

Sequence of UniProt Q15116 (Q15116 25-167 limits assumed): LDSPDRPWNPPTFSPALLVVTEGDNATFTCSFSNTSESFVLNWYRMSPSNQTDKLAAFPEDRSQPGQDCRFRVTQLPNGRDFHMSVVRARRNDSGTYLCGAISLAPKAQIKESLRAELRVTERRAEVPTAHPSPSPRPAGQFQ
Sequence of UniProt Q9EP73 (Q9EP73 19-290): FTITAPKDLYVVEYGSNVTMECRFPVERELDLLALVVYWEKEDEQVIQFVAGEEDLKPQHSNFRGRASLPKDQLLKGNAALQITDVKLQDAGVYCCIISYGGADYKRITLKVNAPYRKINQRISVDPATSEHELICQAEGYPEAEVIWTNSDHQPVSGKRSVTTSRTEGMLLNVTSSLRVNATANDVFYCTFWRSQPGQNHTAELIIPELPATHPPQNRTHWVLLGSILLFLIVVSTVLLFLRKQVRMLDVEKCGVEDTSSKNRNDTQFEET

X-AMean [1]: 4990
X-AMean [2]: 885
X-AMean [3]: 949
Molecule: rat-anti-mouse PD-L1 monoclonal antibody 10F.9G2

X-AMean [1]: 5930
X-AMean [2]: 590
X-AMean [3]: 1830
Molecule: anti-PD-L1(10F.9G2) antibody-HC-mIL-10 fusion protein (from UniProt P18893 19-178)

Kd [4]: 0.83 nM
koff [4]: 0.000806 s⁻¹
kon [4]: 974000 M⁻¹ s⁻¹
B1: anti-human PD-1 antibody 7A4D (antibody, from another filing, V domains shown)
VH: QIQLVQSGSELKKPGASVKVSCKASGYTFTNFGMNWVRQAPGQGLKWMGWISGYTREPTYAADFKGRFVISLDTSVSTAYLQISSLKAEDTAVYYCARDVFDYWGQGTLVTVSS
VL: DIVLTQSPASLAVSPGQRATITCRASESVDNYGYSFMNWFQQKPGQPPKLLIYRASNLESGVPARFSGSGSRTDFTLTINPVEADDTANYYCQQSNADPTFGQGTKLEIKR

Kd [5]: 0.29 nM
koff [5]: 0.000779 s⁻¹
kon [5]: 2.65e+06 M⁻¹ s⁻¹
B2: anti-human PD-L1 antibody 5G11 (antibody, from another filing, V domains shown)
VH: QVQLKQSGPGLVQPSQSLSITCTVSGFSLTTYGVHWVRQSPGKGLEWLGVIWRGVTTDYNAAFMSRLTITKDNSKSQVFFKMNSLQANDTAIYYCARLGFYAMDYWGQGTSVTVSS
VL: SIVMTQTPKFLLVSAGDRVTITCKASQSVSNDVAWYQQKPGQSPKLLIYYAANRYTGVPDRFTGSGYGTDFTFTISIVQAEDLAVYFCQQDYTSPYTFGGGTKLEIK
